For assay [1], the target named is Grass carp reovirus (GCRV) inner capsid shell protein VP3 (Grass carp reovirus (GCRV)). Kind of assay: cryo-EM structure.
Assay [2] concerns the target Grass carp reovirus (GCRV) turret protein VP1 (Grass carp reovirus (GCRV)). Nature of the assay: cryo-EM structure.

The values below come from paper PMC2900196.

The stoichiometry N is the number of molecules, sites or subunits per partner or assembly. “Grass carp reovirus (GCRV) inner capsid shell protein VP3 (natural protein)” came in with a stoichiometry N in assay [1] of 120.
In assay [2], “Grass carp reovirus (GCRV) turret protein VP1 (natural protein)” gave a stoichiometry N of 5.
